# Measurements taken from the DeepSol protein solubility set.
# Assay: soluble on expression in E. coli; label from the status in PepcDB or PDB records
row,Sequence,soluble on expression in E. coli
1,MMQPLYLVGPRGCGKTTIGMALAQATGFRFADTDRWLQSHVQMSVADIVEKEGWGGFRARETAALEAVSAPSTVVATGGGIILTEYNRRYMHRVGVVIYLCAPVSTLVNRLEAEPEADLRPTLTGKPLSEEVREVLEQRDALYRETAHYIIDATKAPAQVVSEIIAALPPSTQRLQGDVYT,not soluble
2,MSLSTLKRDHIKKNLRDTEYDVVIVGGGITGAGIALDASNRGMKVALVEMQDFAQGTSSRSTKLVHGGLRYLKQLQVGVVAETGKERAIVYENGPHVTTPEWMLLPMHKGGTFGKFSTSIGLAMYDRLAGVKKSERKKMLSKQETLNKEPLVKRDGLKGGGYYVEYRTDDARLTIEVMKKAAENGAEILNYTKSEHFTYDSNKKVNGIEVLDMIDGETYAIKAKKVINASGPWVDEVRSGDYARNNKQLRLTKGVHVVIDQSKFPLGQAVYFDTEKDGRMIFAIPREGKAYVGTTDTFYDNEKATPLTTQEDRDYLINAINYMFPTVNVKDEDIESTWAGIRPLILEKGKDPSEISRKDEVWEGESGLLTIAGGKLTGYRHMALEIVDLLAKRLKQEYGLKFESCATKNLKISGGDVGGSKNFEHFVEQKVDAAKGFGIDEDVARRLASKYGSNVDQLFNIAQTAPYHDSKLPLEIYVELVYSIQQEMVYKPTDFLVRRSGKLYFNIQDVLDYKNAVIDVMADMLNYSETQKEAYTEEVEVAIDEARTGNDQPATKALEHHHHHH,soluble
3,MSDLVSYHLDDGVATLTLNNGKVNAISPDVIIAFNAALDQAEKDRAIVIVTGQPGILSGGYDLKVMTSSAEAAINLVAQGSTLARRMLSHPFPIIVACPGHAVAKGAFLLLSADYRIGVAGPFSIGLNEVQIGMTMHHAGIELARDRLRKSAFNRSVINAEMFDPEGAMAAGFLDKVVSVEELQGAALAVAAQLKKI,not soluble
4,PLGSDGLPLDPRDWTRADVWKWLINMAVSEGLEVTAELPQKFPMNGKALCLMSLDMYLCRVPVGGKMLYRDFRVRLARAMSR,soluble
5,MSLQRGAGQYFAGKRCFVTGAASGIGRATALRLAAQGAELYLTDRDRDGLAQTVCDARALGAQVPEHRVLDVSDYQDVAAFAADIHARHPSMDVVLNIAGVSAWGTVDQLTHDQWSRMVAINLMGPIHVIETLVPPMVAAGRGGHLVNVSSAAGLVGLPWHAAYSASKYGLRGLSEVLRFDLARHGIGVSVVVPGAVKTPLVNTVEIAGVDRDDPRVNRWVERFSGHAVTPEKAADKILAGVTRNRYLVYTSADIRALYAFKRYAWWPYTLVMRRVNVFFTRALRPGEGHHHHHH,soluble
6,MREWINQSKIDLLAKEIGEENVPILVNIFLGELNDYQSKLVSDTVADKLGYLKEISHALKSSAASFGADRLCAKAVELDSRAKSGEMMDISLEVEHMLELLKQTHQCYSDLVH,not soluble
7,MGSDKIHHHHHHMSHSTDLSALARWMAADFSNQAQAFENPPFYAHIRVAIRPLDQAKFGDRLLFLEQAYDFMLQRPYRLRVLKLKVVEDHIEIENFKVKDEEKFYGAARDLGKLAQLTPADLEPMHGCDMIVEWTGTSFKGEVQPGRQCRVMRDGKETYLENSFEVSETGLISLDRGYDPETNERVWGSVAGAFHFVRWQSFADEVSF,not soluble
8,MSWFISRKDIAYISRGAKLLGCGGGGDTKTTQRLLESIMKEDDQINVLQYEDLTEQVVATVCFAGSPILYEEQLPRGDEGQMVFQEYQLKTNKKIDAVISAEIGGMNALIPLVVALQTGCAVVDGDGMGRAFPEFTMTTFYMHGLPISPLILLTRDGKQHLIEGAANDRIVRDNRQLLNMHGGFGHFICCGADANVVKNMMVSGTLKLAYRLGRAMEQDQLSAAAGWTAVEDEWENSIYGKPTLLIKGTVESVVRTFDQEQIVGELTIIGKQRFIGTTLTVSFHNEFIAVKKEGQYLVMVPDLIIIVNAKTFLPYTTNEIQRGMSVLIYAIPAPNVLRQKQMIDHVGPQAYGLDVPYEPFFLEHHHHHH,not soluble
9,MGPYNYGWHDSDEAGKKARRGLDEDVVRYISAQKNEPEWMLEQRLKALNTFEKKPMPTWGPDLSYINFDDFKYYVRSTEKQATTWDDLPEDIKNTYDKLGIPEAEKQRLVAGVAAQYESEVVYHQIREDLETQGVIFLDTDTALKEHPELFQEYFGTVVPAGDNKFSALNSAVWSGGSFVYVPKGVHVEIPLQAYFRINTENMGQFERTLIIVDEGAYVHYVEGCTAPIYQSDSLHSAVVEIIVKKNARCRYTTIQNWSNNVLNLVTQRSKVEEGGTMEWVDGNIGSKVTMKYPAVWMVGPHAKGEVLSAAFAGEGQIQDTGAKMQHMAPYTSSNIVSKSVARSGGRAAYRGLVRVAANAHHSVSNVECDALLVDNISRSDTYPYNDIRNDHVSLGHEATVSQVSEEQLFYLQSRGIAEDEAMAMIVRGFVEPIAKELPMEYALELNRLIELQMEGSVG,not soluble
10,MANPKLPGISESEQALLYAKLNEYNRGRASFKEAGVYLVVLPRPGKPNYSLWLYSPLPEKQSILYIHDLSPDINESLRIASTMFYYSRRCLILMDYNEKRMQSNGDDLIFFGKYRGHFLHEILKVDPAYLSWIAYKFTPKIPKQERFVKIAQAYHSVHLDVMLRKSKEVRRKSRYLGEVNEKLTDLKLKVMRVRLEDDPYKTRVYGTTPQFFVKQILTLNDASGNLVTMSIPSKTPSTVSCTLSGIEHEYRPGEIIYVASARVSRLFESYGSKYTRLSNVKLAIVNAWSSRL,not soluble
11,MPPPIAFNASARKSQSVNQSDVMMMSDPSHVDIIKSNSHTTRIAVNLVSEPESRLKLHGEDARMSWTVLLLVFRATTIATRNNVPELDRELAR,not soluble
12,MSLRSELPEGFFGPREWARLNAVADIIPGFPHTDFDTANGAEALAEADILLAAWGTPSLTRERLSRAPRLKMLAYAASSVRMVAPAEFWETSDILVTTAASAMAVPVAEFTYAAIIMCGKDVFRLRDEHRTERGTGVFGSRRGRSLPYLGNHARKVGIVGASRIGRLVMEMLARGTFEIAVYDPFLSAEEAASLGAKKAELDELLAWSDVVSLHAPILPETHHMIGARELALMADHAIFINTARGWLVDHDALLTEAISGRLRILIDTPEPEPLPTDSPFYDLPNVVLTPHIAGALGNELRALSDLAITEIERFVAGLAPLHPVHKQDMERMAEGHHHHHH,soluble
13,MGSLNGGSPEGVESQDGVDHFRAMIVEFMASKKMQLEFPPSLNSHDRLRVHQIAEEHGLRHDSSGEGKRRFITVSKRAGSHHHHHH,soluble
14,AAEGERAEPLRPSQSGARPCRAVGNMHFSIPETESRSGDSGGSAYVAYNIHVNGVLHCRVRYSQLLGLHEQLRKEYGANVLPAFPPKKLFSLTPAEVEQRREQLEKYMQAVRQDPLLGSSETFNSFLRRAQQETQQVPTEEVSLEVLLSNGQKVLVNVLTSDQTEDVLEAVAAKLDLPDDLIGYFSLFLVREKEDGAFSFVRKLQEFELPYVSVTSLRSQEYKIVLRKSYWDSAYDDDVMENRVGLNLLYAQTVSDIERGWILVTKEQHRQLKSLQEKVSKKEFLRLAQTLRHYGYLRFDACVADFPEKDCPVVVSAGNSELSLQLRLPGQQLREGSFRVTRMRCWRVTSSVPLPSGSTSSPGRGRGEVRLELAFEYLMSKDRLQWVTITSPQAIMMSICLQSMVDELMVKKSGGSIRKMLRRRVGGTLRRSDSQQAVKSPPLLESPDATRESMVKLSSKLSAVSLRGIGSPSTDASASDVHGNFAFEGIGDEDL,soluble
15,MGSDKIHHHHHHMDAHRYCQERAAASGSSFYYSFVFLPTEVRRAITAFYALCRELDDVVDECHERQLAELKLAWWREEIGRFAAGAATHPATRALADTARGASVQPALLLEIVDGMAMDLEHARYADFRALKLYCHRAASVVGEIAAGIFEGARGEHDREVRRYAHELGLAFQLTNIIRDVGEDARRGRIYLPLDEMARFGVAEADVLEGRDTPAFRALMQFQYERAVAHYERALATLPSAARRAQRPGLVMAAIYRSLLDEIRRDGFPVLRARIALTPLRKLWLASRTWLFP,not soluble
